Laboratory results from patent US20250333503A1.

Columns and labels:
[1] = molecular target: mouse PVRL2 endogenously expressed on B16-F10 cells (mouse) (UniProt P32507); test: FACS dose response on B16-F10 cells
[2] = molecular target: mouse PVRL2 splice variant 2 on HEK293 cells (mouse); test: FACS dose response on HEK293 OX mouse PVRL2

Chain of mouse PVRL2 endogenously expressed on B16-F10 cells (mouse) (P32507 32-530): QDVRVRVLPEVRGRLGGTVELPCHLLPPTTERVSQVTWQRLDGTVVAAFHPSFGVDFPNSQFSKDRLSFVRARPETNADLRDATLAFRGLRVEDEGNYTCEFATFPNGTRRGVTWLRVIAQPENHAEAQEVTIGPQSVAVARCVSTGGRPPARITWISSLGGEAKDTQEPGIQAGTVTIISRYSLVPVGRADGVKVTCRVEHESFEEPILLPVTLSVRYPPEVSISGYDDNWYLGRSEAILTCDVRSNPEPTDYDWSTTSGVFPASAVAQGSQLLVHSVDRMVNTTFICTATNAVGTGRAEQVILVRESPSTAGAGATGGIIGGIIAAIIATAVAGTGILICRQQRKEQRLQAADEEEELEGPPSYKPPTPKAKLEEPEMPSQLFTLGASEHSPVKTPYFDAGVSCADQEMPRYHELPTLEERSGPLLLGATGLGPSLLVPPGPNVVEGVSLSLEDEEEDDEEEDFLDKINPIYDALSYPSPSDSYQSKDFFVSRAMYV

- concentration at saturation of binding [1]: 12.5 µg/mL
- concentration at saturation of binding [2]: 12.5 µg/mL
Substance: PVRIG mECD-mIg fusion protein (ECD of mouse PVRIG fused to Fc of mouse IgG2a) (Fc fusion)
